According to US20030100049:

Biological target: Crosstide substrate peptide (UBI)

B1: MyrAkt3HA (full length human Akt3 fused to the myristylation signal from human Src at the N-terminus and to an HA-tag at the C-terminus) (protein)
chain: MGSNKSKPKDASQRRRSSDVTIVKEGWVQKRGEYIKNWRPRYFLLKTDGSFIGYKEKPQDVDLPYPLNNFSVAKCQLMKTERPKPNTFIIRCLQWTTVIERTFHVDTPEEREEWTEAIQAVADRLQRQEEERMNCSPTSQIDNIGEEEMDASTTHHKRKTMNDFDYLKLLGKGTFGKVILVREKASGKYYAMKILKKEVIIAKDEVAHTLTESRVLKNTRHPFLTSLKYSFQTKDRLCFVMEYVNGGELFFHLSRERVFSEDRTRFYGAEIVSALDYLHSGKIVYRDLKLENLMLDKDGHIKITDFGLCKEGITDAATMKTFCGTPEYLAPEVLEDNDYGRAVDWWGLGVVMYEMMCGRLPFYNQDHEKLFELILMEDIKFPRTLSSDAKSLLSGLLIKDPNKRLGGGPDDAKEIMRHSFFSGVNWQDVYDKKLVPPFKPQVTSETDTRYFDEEFTAQTITITPPEKCQQSDCGMLGNWKK
B1 was tested, and the “Kinase activity of anti-HA immunopellets (32P incorporation into substrate peptide, scintillation counting)” value was “Kinase activity present in CMV6[MyrAkt3HA] transfected samples was 20 times higher than that present in cells transfected with the control vector CMV6”.
